Results on 56 variants are retold here after the RNAGym collection of RNA variant scans (doi:10.7554/elife.90254).

The chains are these.
B1: LINE1-mini (parent)
chain: GGCAGAGCUCAACACAGCGUGGCAAAGUGGCUGUGGCUAGACUGCC

This series covers variants of B1. The series is described as follows: self-cleavage, relative activity (ratio to wild type); higher = more cleavage; in vitro, sequencing; the parent is a self-cleaving ribozyme.
For the variant GGCAGAGCUCAACAUAGGGUGGCAAAGUGGCUGUGGCUAGACUGCC [C15U C18G], the self-cleavage was determined as 0.07.
For GGCAGAGCUCAACAUAGUGUGGCAAAGUGGCUGUGGCUAGACUGCC [C15U C18U] the value was 0.47; for GGCAGAGCUCAACAUAGAGUGGCAAAGUGGCUGUGGCUAGACUGCC [C15U C18A], 0.09; for GGCAGAGCUCAACAUAGCGUGGCAAAGUGGCUGUGGCUAGAAUGCC [C15U C42A], 0.08.
Then GGCAGAGCUCAACAUAGCGUGGCAAAGUGGCUGUGGCUAGAUUGCC [C15U C42U], with 0.11.
On to GGCAGAGCUCAACAUAGCGUGGCAAAGUGGCUGUGGCUAGAGUGCC [C15U C42G], for which the self-cleavage was 0.09.
Then GGCAGAGCUCAACAUAGCGUGGCACAGUGGCUGUGGCUAGACUGCC [C15U A25C], with 1; and GGCAGAGCUCAACAUAGCGUGGCAGAGUGGCUGUGGCUAGACUGCC [C15U A25G], with 0.17.
Then GGCAGAGCUCAACAUAGCGUGGCAUAGUGGCUGUGGCUAGACUGCC [C15U A25U], with 0.77; and GGCAGAGCUCAACAUAGCGUUGCAAAGUGGCUGUGGCUAGACUGCC [C15U G21U], with 1.46; and GGCAGAGCUCAACAUAGCGUAGCAAAGUGGCUGUGGCUAGACUGCC [C15U G21A], with 1.23.
For GGCAGAGCUCAACAUAGCGUCGCAAAGUGGCUGUGGCUAGACUGCC [C15U G21C] the value was 1.81; for GGCAGAGCUCAACAUAGCGUGACAAAGUGGCUGUGGCUAGACUGCC [C15U G22A], 1.21; for GGCAGAGCUCAACAUAGCGUGUCAAAGUGGCUGUGGCUAGACUGCC [C15U G22U], 0.78.
For the variant GGCAGAGCUCAACAUAGCGUGCCAAAGUGGCUGUGGCUAGACUGCC [C15U G22C], the self-cleavage stood at 0.53.
For GGCAGAGCUCAACAUAGCGUGGCAAAGUGGCUGUGGCUAGACUGCC [C15U] the value was 1.03; for GGCAGAGCUCAACAUUGCGUGGCAAAGUGGCUGUGGCUAGACUGCC [C15U A16U], 0.1; for GGCAGAGCUCAACAUCGCGUGGCAAAGUGGCUGUGGCUAGACUGCC [C15U A16C], 0.13.
For GGCAGAGCUCAACAUGGCGUGGCAAAGUGGCUGUGGCUAGACUGCC [C15U A16G] the value was 0.42; for GGCAGAGCUCAACAUAGCGUGGCAAAGUGGCUGUGGGUAGACUGCC [C15U C37G], 0.08; for GGCAGAGCUCAACAUAGCGUGGCAAAGUGGCUGUGGUUAGACUGCC [C15U C37U], 0.11.
For GGCAGAGCUCAACAUAGCGUGGCAAAGUGGCUGUGGAUAGACUGCC [C15U C37A] the value was 0.11; for GGCAGAGCUCAACAUAGCGUGGCAAAGUGGCUGUGGCUCGACUGCC [C15U A39C], 0.18; for GGCAGAGCUCAACAUAGCGUGGCAAAGUGGCUGUGGCUGGACUGCC [C15U A39G], 0.11.
For the variant GGCAGAGCUCAACAUAGCGUGGCAAAGUGGCUGUGGCUUGACUGCC [C15U A39U], the self-cleavage is 0.72.
For GGCAGAGCUCAACAUAGCGUGGCAAAGUGGCUGUGGCUAGACUGUC [C15U C45U] the value was 0.79.
With GGCAGAGCUCAACAUAGCGUGGCAAAGUGGCUGUGGCUAGACUGAC [C15U C45A], the self-cleavage worked out at 0.21.
Then GGCAGAGCUCAACAUAGCGUGGCAAAGUGGCUGUGGCUAGACUGGC [C15U C45G], with 0.2.
For GGCAGAGCUCAACAUAGCGUGGCAAAGUGGAUGUGGCUAGACUGCC [C15U C31A] the value was 0.06; for GGCAGAGCUCAACAUAGCGUGGCAAAGUGGGUGUGGCUAGACUGCC [C15U C31G], 0.06; for GGCAGAGCUCAACAUAGCGUGGCAAAGUGGUUGUGGCUAGACUGCC [C15U C31U], 0.09.
Consider GGCAGAGCUCAACAUAGCUUGGCAAAGUGGCUGUGGCUAGACUGCC [C15U G19U], for which the self-cleavage turned out to be 0.87.
Then GGCAGAGCUCAACAUAGCCUGGCAAAGUGGCUGUGGCUAGACUGCC [C15U G19C], with 1.39.
For GGCAGAGCUCAACAUAGCAUGGCAAAGUGGCUGUGGCUAGACUGCC [C15U G19A], the self-cleavage was determined as 0.98.
Then GGCAGAGCUCAACAUAGCGUGGCAAAGUGGCUGUGGCUAGCCUGCC [C15U A41C], with 0.08; and GGCAGAGCUCAACAUAGCGUGGCAAAGUGGCUGUGGCUAGGCUGCC [C15U A41G], with 0.25.
Then GGCAGAGCUCAACAUAGCGUGGCAAAGUGGCUGUGGCUAGUCUGCC [C15U A41U], with 0.33; and GGCAGAGCUCAACAUAGCGUGGCAAAGUGGCUGUGGCUAGACUGCU [C15U C46U], with 0.43; and GGCAGAGCUCAACAUAGCGUGGCAAAGUGGCUGUGGCUAGACUGCG [C15U C46G], with 0.33.
For GGCAGAGCUCAACAUAGCGUGGCAAAGUGGCUGUGGCUAGACUGCA [C15U C46A] the value was 0.92.
Take GGCAGAGCUCAACAUAGCGUGGCAACGUGGCUGUGGCUAGACUGCC [C15U A26C]: the self-cleavage was found to be 1.74.
Then GGCAGAGCUCAACAUAGCGUGGCAAGGUGGCUGUGGCUAGACUGCC [C15U A26G], with 0.88.
Then GGCAGAGCUCAACAUAGCGUGGCAAUGUGGCUGUGGCUAGACUGCC [C15U A26U], with 0.74; and GGCAGAGCUCAACAUAACGUGGCAAAGUGGCUGUGGCUAGACUGCC [C15U G17A], with 0.07; and GGCAGAGCUCAACAUAUCGUGGCAAAGUGGCUGUGGCUAGACUGCC [C15U G17U], with 0.11.
For GGCAGAGCUCAACAUACCGUGGCAAAGUGGCUGUGGCUAGACUGCC [C15U G17C] the value was 0.19; for GGCAGAGCUCAACAUAGCGUGGAAAAGUGGCUGUGGCUAGACUGCC [C15U C23A], 2.82.
Consider GGCAGAGCUCAACAUAGCGUGGUAAAGUGGCUGUGGCUAGACUGCC [C15U C23U], for which the self-cleavage was found to be 1.91.
Then GGCAGAGCUCAACAUAGCGUGGGAAAGUGGCUGUGGCUAGACUGCC [C15U C23G], with 0.81.
For GGCAGAGCUCAACAGAGCGUGGCAAAGUGGCUGUGGCUAGACGGCC [C15G U43G] the value was 0.
For GGCAGAGCUCAACAGAGCGUGGCAAAGUGGCUGUGGCUAGACAGCC [C15G U43A] the value was 0.02; for GGCAGAGCUCAACAGAGCGUGGCAAAGUGGCUGUGGCUAGACCGCC [C15G U43C], 0.03.
GGCAGAGCUCAACAUAGCGUGGCAAAAUGGCUGUGGCUAGACUGCC [C15U G27A]: the self-cleavage came out at 1.41.
Then GGCAGAGCUCAACAUAGCGUGGCGAAGUGGCUGUGGCUAGACUGCC [C15U A24G], with 1.53; and GGCAGAGCUCAACAUAGCGUGGCCAAGUGGCUGUGGCUAGACUGCC [C15U A24C], with 0.25; and GGCAGAGCUCAACAUAGCGUGGCUAAGUGGCUGUGGCUAGACUGCC [C15U A24U], with 0.32.
